Target: target antigen of trastuzumab on the target cells (UniProt P04626)
Test: flow cytometry on cells

B1: meditope-enabled trastuzumab (antibody, V domains shown)
VH: not shown
VL: DIQMTQSPILLSASVGDRVTITCRASQDVNTAVAWYQQRTNGSPRLLIYSASFLYSGVPSRFSGSRSGTDFTLTISSLQPEDIADYYCQQHYTTPPTFGAGTKVEIK
binding result: binds

From PMC6827484 (Methods in molecular biology (Clifton, N.J.), 2019)
